Laboratory results from patent US20230288411A1, “POLYPEPTIDE, MULTIMER, SOLID PHASE, MEASUREMENT METHOD FOR TEST SUBSTANCE, AND REAGENT KIT” (SYSMEX CORPORATION, priority 2020, published 2023).
Entries after “also recorded” stand apart in the source; their conditions may differ.

Tests used:
D-biotin-labeled albumin = assay: SPR (Biacore T200) binding evaluation to D-biotin-labeled albumin; design: species or system bovine; settings: analyte flowed at 30 μL/min up to 100 nM, single cycle method, albumin immobilized on sensor chip
Procedure: (§1) A binding ability of D-streptavidin obtained in Example 1 to D-biotin as a natural form and L-biotin as an optical isomer of D-biotin was evaluated by an intermolecular interaction analyzer (Biacore T200) using SPR as a measurement principle.
An N,N-dimethylformamide solution (16.3 μL) containing 10 mg/mL D-biotin-AC5-OSu (manufactured by DOJINDO LABORATORIES) was added to 2.8 mL of 50 mg/mL bovine serum albumin/0.1 M phosphate buffer solution (pH 7.5), and the mixture was stirred, then allowed to stand at 35° C. for 1 hour. Thereafter, desalting was performed by PD-10 (17085101, manufactured by Cytiva) equilibrated with a 0.1 M phosphate buffer (pH 7.5), and D-biotin-labeled albumin was recovered. The number of labeled D-biotin per molecule of albumin by HABA method was 0.4.
Bovine serum albumin was immobilized on flow cells 1 and 3 of a CMS sensor chip (manufactured by Cytiva) of a Biacore T200 system at a target level of 400 RU by an amine coupling method with an amine coupling kit (Cytiva). […]
(§2) Using HBS-EP+(manufactured by Cytiva) as a running buffer, the prepared D-tamavidin (trademark) 2 was flowed into each flow cell at a flow rate of 30 μL/min in the range of 100 pM to 100 nM by a single cycle method, and binding and dissociation to D-biotin or L-biotin was evaluated by Biacore T200 Evaluation Software (manufactured by Cytiva).

L-biotin-labeled albumin = assay: SPR (Biacore T200) binding evaluation to L-biotin-labeled albumin; design: species or system bovine; settings: analyte flowed at 30 μL/min up to 100 nM, single cycle method, albumin immobilized on sensor chip
Procedure: as §1
Similarly, L-biotin-labeled albumin was prepared using L-biotin-AC5-OSu [see (Amidation of L-biotin) described in Example 3 above].
Bovine serum albumin was immobilized on flow cells 1 and 3 of a CMS sensor chip (manufactured by Cytiva) of a Biacore T200 system at a target level of 400 RU by an amine coupling method with an amine coupling kit (Cytiva). Further, L-biotin-labeled albumin and D-biotin-labeled albumin were immobilized at a target level of 400 RU to flow cells 2 and 4, respectively, similarly by an amine coupling method. Blocking was performed in each flow cell with 1 M ethanolamine solution, pH 8.5 (manufactured by Cytiva). […]
as §2

B1: D-tamavidin (trademark) 2: avidin-like protein derived from Pleurotus cornucopiae consisting of D amino acids, 2nd to 141st amino acid sequence of SEQ ID NO: 4 (peptide, listed as Pleurotus cornucopiae)
chain: SDVQSSLTGTWYNELNSKMELTANKDGTLTGKYLSKVGDVYVPYPLSGRYNLQPPAGQGVALGWAVSWENSKIHSATTWSGQFFSESSPVILTQWLLSSSTARGDVWESTLVGNDSFTKTAPTEQQIAHAQLHCRAPRLK
modifications: D-amino acids
In the case of B1, the “binding to D-biotin-labeled albumin (SPR sensorgram)” value (D-biotin-labeled albumin) is reported as “No increase in SPR signal; also recorded: does not substantially bind” and the “binding to L-biotin-labeled albumin (SPR sensorgram)” value (L-biotin-labeled albumin) is reported as “increase in the SPR signal was observed; also recorded: binds”.
